Results from patent US20170165339A1.
One block for each binder: values may come before it.

Target: HLA-A*24 (human)
Experiment: UV peptide-exchange ELISA, yield grade

- peptide exchange yield: > 75%
B1: … (SEQ ID NO: 278) (peptide)
peptide: RYISDQLFTNF

- peptide exchange yield: > 75%
B2: … (SEQ ID NO: 175) (peptide)
peptide: YYEVHKELF

- peptide exchange yield: 50 to 75%
B3: … (SEQ ID NO: 199) (peptide)
peptide: RYAEEVGIF

- peptide exchange yield: 50 to 75%
B4: … (SEQ ID NO: 171) (peptide)
peptide: LFIPSSKLLFL

- peptide exchange yield: > 75%
B5: … (SEQ ID NO: 173) (peptide)
peptide: IYSWILDHF

- peptide exchange yield: 20 to 49%
B6: … (SEQ ID NO: 207) (peptide)
peptide: AYVVFVSTL

- peptide exchange yield: > 75%
B7: … (SEQ ID NO: 277) (peptide)
peptide: VYQGHTALL

- peptide exchange yield: > 75%
B8: … (SEQ ID NO: 202) (peptide)
peptide: VYWDSAGAAHF

- peptide exchange yield: 50 to 75%
B9: … (SEQ ID NO: 287) (peptide)
peptide: LYITEPKTI

- peptide exchange yield: > 75%
B10: … (SEQ ID NO: 163) (peptide)
peptide: DYLKGLASF

- peptide exchange yield: 50 to 75%
B11: … (SEQ ID NO: 222) (peptide)
peptide: TFSVSSHLF

- peptide exchange yield: > 75%
B12: … (SEQ ID NO: 161) (peptide)
peptide: IYLVSIPEL

- peptide exchange yield: > 75%
B13: … (SEQ ID NO: 166) (peptide)
peptide: YYVESGKLF

- peptide exchange yield: > 75%
B14: … (SEQ ID NO: 227) (peptide)
peptide: IFLDYEAGTLSF

- peptide exchange yield: > 75%
B15: … (SEQ ID NO: 160) (peptide)
peptide: VYTLDIPVL

- peptide exchange yield: > 75%
B16: … (SEQ ID NO: 168) (peptide)
peptide: KYQDILETI

- peptide exchange yield: 50 to 75%
B17: … (SEQ ID NO: 196) (peptide)
peptide: LYIDRPLPYL

- peptide exchange yield: 50 to 75%
B18: … (SEQ ID NO: 288) (peptide)
peptide: VYVSDIQEL

- peptide exchange yield: > 75%
B19: … (SEQ ID NO: 267) (peptide)
peptide: KYMVYPQTF

- peptide exchange yield: 20 to 49%
B20: … (SEQ ID NO: 281) (peptide)
peptide: PYRLIFEKF

- peptide exchange yield: 50 to 75%
B21: … (SEQ ID NO: 174) (peptide)
peptide: VYVGGGQIIHL

- peptide exchange yield: > 75%
B22: … (SEQ ID NO: 280) (peptide)
peptide: RYPDNLKHLYL

- peptide exchange yield: 50 to 75%
B23: … (SEQ ID NO: 270) (peptide)
peptide: NYYEVHKELF

- peptide exchange yield: 50 to 75%
B24: … (SEQ ID NO: 197) (peptide)
peptide: EYSLFPGQVVI

- peptide exchange yield: 50 to 75%
B25: … (SEQ ID NO: 200) (peptide)
peptide: YYGPSLFLL

- peptide exchange yield: 50 to 75%
B26: … (SEQ ID NO: 284) (peptide)
peptide: RYLNKAFHI

- peptide exchange yield: 50 to 75%
B27: … (SEQ ID NO: 224) (peptide)
peptide: QYLENLEKL

- peptide exchange yield: 50 to 75%
B28: … (SEQ ID NO: 169) (peptide)
peptide: AYTLIAPNI

- peptide exchange yield: > 75%
B29: … (SEQ ID NO: 289) (peptide)
peptide: KYPVEWAKF

- peptide exchange yield: > 75%
B30: … (SEQ ID NO: 195) (peptide)
peptide: TYSVSFPMF

- peptide exchange yield: > 75%
B31: … (SEQ ID NO: 228) (peptide)
peptide: KYTSWYVAL

- peptide exchange yield: > 75%
B32: … (SEQ ID NO: 282) (peptide)
peptide: KFVDSTFYL

- peptide exchange yield: 50 to 75%
B33: … (SEQ ID NO: 226) (peptide)
peptide: VYRDETGELF

- peptide exchange yield: > 75%
B34: … (SEQ ID NO: 159) (peptide)
peptide: LYNKGFIYL

- peptide exchange yield: 50 to 75%
B35: … (SEQ ID NO: 273) (peptide)
peptide: TYIKPISKL

- peptide exchange yield: 50 to 75%
B36: … (SEQ ID NO: 221) (peptide)
peptide: RYSTGLAGNLL

- peptide exchange yield: 50 to 75%
B37: … (SEQ ID NO: 283) (peptide)
peptide: TYGDAGLTYTF

- peptide exchange yield: > 75%
B38: … (SEQ ID NO: 204) (peptide)
peptide: TYELRYFQI

- peptide exchange yield: 20 to 49%
B39: … (SEQ ID NO: 286) (peptide)
peptide: RYPDNLKHL

- peptide exchange yield: 50 to 75%
B40: … (SEQ ID NO: 223) (peptide)
peptide: KYIPYKYVI

- peptide exchange yield: 50 to 75%
B41: … (SEQ ID NO: 219) (peptide)
peptide: EYPLVINTL

- peptide exchange yield: 50 to 75%
B42: … (SEQ ID NO: 285) (peptide)
peptide: HYPPVQVLF

- peptide exchange yield: > 75%
B43: … (SEQ ID NO: 158) (peptide)
peptide: HYSQELSLLYL

- peptide exchange yield: 20 to 49%
B44: … (SEQ ID NO: 170) (peptide)
peptide: VYEDQVGKF

- peptide exchange yield: 50 to 75%
B45: … (SEQ ID NO: 176) (peptide)
peptide: EYNQWFTKL

- peptide exchange yield: 50 to 75%
B46: … (SEQ ID NO: 201) (peptide)
peptide: IYATEAHVF

- peptide exchange yield: 50 to 75%
B47: … (SEQ ID NO: 279) (peptide)
peptide: TYIESASEL

- peptide exchange yield: > 75%
B48: … (SEQ ID NO: 167) (peptide)
peptide: NYINRILKL

- peptide exchange yield: 50 to 75%
B49: … (SEQ ID NO: 269) (peptide)
peptide: YFIDSTNLKTHF

- peptide exchange yield: 50 to 75%
B50: … (SEQ ID NO: 218) (peptide)
peptide: YYKSTSSAF

- peptide exchange yield: 50 to 75%
B51: … (SEQ ID NO: 268) (peptide)
peptide: QYLGQIQHI

- peptide exchange yield: > 75%
B52: … (SEQ ID NO: 276) (peptide)
peptide: VYGFQWRHF

- peptide exchange yield: 50 to 75%
B53: … (SEQ ID NO: 225) (peptide)
peptide: YYVYIMNHL

- peptide exchange yield: > 75%
B54: … (SEQ ID NO: 272) (peptide)
peptide: QYLQDAYSF

- peptide exchange yield: 50 to 75%
B55: … (SEQ ID NO: 275) (peptide)
peptide: EYINQGDLHEF

- peptide exchange yield: 50 to 75%
B56: … (SEQ ID NO: 209) (peptide)
peptide: TYKDEGNDYF

- peptide exchange yield: > 75%
B57: … (SEQ ID NO: 274) (peptide)
peptide: AYLHSHALI

- peptide exchange yield: > 75%
B58: … (SEQ ID NO: 165) (peptide)
peptide: DYTTWTALL

- peptide exchange yield: > 75%
B59: … (SEQ ID NO: 271) (peptide)
peptide: LYHDIFSRL

- peptide exchange yield: 50 to 75%
B60: … (SEQ ID NO: 164) (peptide)
peptide: KFSSFSLFF

- peptide exchange yield: 50 to 75%
B61: … (SEQ ID NO: 162) (peptide)
peptide: VFTRVSSFL
